Experimental data as given in patent US20160331662A1 (UAB RESEARCH FOUNDATION, published 2016).

B3: FL^SspB (S. gordonii DL1 SspB, residues 39-1433) (other)
chain: DEVTETTSTSTVEVATTGNPATNLPEAQGEMSQVAKESQAKAGSKESALPVEVSSADLDKAVADAKSAGVKVVQDETKDKGTATTATDNAQKQDEIKSDYAKQAEEIKTTTEAYKKEVAAHQAETDKINAENKAADDKYQKDLKSHQEEVEKINTANATAKAEYEAKLAQYQKDLATVKKANEDSQQDYQNKLSAYQTELARVQKANAEAKEAYEKAVKENTAKNEALKVENEAIKQRNETAKATYEAAMKQYEADLAAIKKANEDNDADYQAKLAAYQTELARVQKANAEAKEAYDKAVKENTAKNTAIQAENEAIKQRNETAKATYDAAVKKYEADLAAVKQANATNEADYQAKLAAYQTELARVQKANADAKATYEKAVEDNKAKNAAIKAENEEIKQRNAVAKTDYEAKLAKYEADLAKYKKEFAAYTAALAEAESKKKQDGYLSEPRSQSLNFKSEPNAIRTIDSSVHQYGQQELDALVKSWGISPTNPDRKKSRAYSYFNAINSNNTYAKLVLEKDKPVDVTYTGLKNSSFNGKKISKVVYTYTLKETGFNDGTKMTMFASSDPTVTAWYNDYFTSTNINVKVKFYDEEGQLMNLTGGLVNFSSLNRGNGSGAIDKDAIESVRNFNGRYIPISGSSIKIHENNSAYADSSNAEKSLGARWNTSEWDTTSSPNNWYGAIVGEITQSEISFNMASSKSGNIWFAFNSNINAIGVPTKPVAPTAPTQPMYETEKPLEPAPVAPSYENEPTPPVKTPDQPEPSKPEEPTYETEKPLEPAPVAPSYENEPTPPVKTPDQPEPSKPEEPNYETEKPLEPAPVAPSYENEPTPPVKIPDQPEPSKPEEPTYDPLPTPPLAPTPKQLPTPPVVPTVHFHYSSLLAQPQINKEIKNEDGVDIDRTLVAKQSIVKFELKTEALTAGRPKTTSFVLVDPLPTGYKFDLDATKAASTGFDTTYDEASHTVTFKATDETLATYNADLTKPVETLHPTVVGRVLNDGATYTNNFTLTVNDAYGIKSNVVRVTTPGKPNDPDNPNNNYIKPTKVNKNKEGLNIDGKEVLAGSTNYYELTWDLDQYKGDKSSKEAIQNGFYYVDDYPEEALDVRPDLVKVADEKGNQVSGVSVQQYDSLEAAPKKVQDLLKKANITVKGAFQLFSADNPEEFYKQYVATGTSLVITDPMTVKSEFGKTGGKYENKAYQIDFGNGYATEVVVNNVPKITPKKDVTVSLDPTSENLDGQTVQLYQTFNYRLIGGLIPQNHSEELEDYSFVDDYDQAGDQYTGNYKTFSSLNLTMKDGSVIKAGTDLTSQTTAETDATNGIVTVRFKEDFLQKISLDSPFQAETYLQMRRIAIGTFENTYVNTVNKVAYASNTVRTTTPIPRTPDKPTPIPTPKPKDP
notes: range 39-1433

Legend:
[1] = molecular target: T1, FL^AgI/II (S. mutans UA159 Antigen I/II, full length recombinant construct) (Streptococcus mutans UA159, UniProt P23504 39-1562); assay: SPR, analyte over ligand deglycosylated on the CM5 chip, 1:1 Langmuir model
T1 construct: also called CG14
T1 sequence (P23504 39-1562): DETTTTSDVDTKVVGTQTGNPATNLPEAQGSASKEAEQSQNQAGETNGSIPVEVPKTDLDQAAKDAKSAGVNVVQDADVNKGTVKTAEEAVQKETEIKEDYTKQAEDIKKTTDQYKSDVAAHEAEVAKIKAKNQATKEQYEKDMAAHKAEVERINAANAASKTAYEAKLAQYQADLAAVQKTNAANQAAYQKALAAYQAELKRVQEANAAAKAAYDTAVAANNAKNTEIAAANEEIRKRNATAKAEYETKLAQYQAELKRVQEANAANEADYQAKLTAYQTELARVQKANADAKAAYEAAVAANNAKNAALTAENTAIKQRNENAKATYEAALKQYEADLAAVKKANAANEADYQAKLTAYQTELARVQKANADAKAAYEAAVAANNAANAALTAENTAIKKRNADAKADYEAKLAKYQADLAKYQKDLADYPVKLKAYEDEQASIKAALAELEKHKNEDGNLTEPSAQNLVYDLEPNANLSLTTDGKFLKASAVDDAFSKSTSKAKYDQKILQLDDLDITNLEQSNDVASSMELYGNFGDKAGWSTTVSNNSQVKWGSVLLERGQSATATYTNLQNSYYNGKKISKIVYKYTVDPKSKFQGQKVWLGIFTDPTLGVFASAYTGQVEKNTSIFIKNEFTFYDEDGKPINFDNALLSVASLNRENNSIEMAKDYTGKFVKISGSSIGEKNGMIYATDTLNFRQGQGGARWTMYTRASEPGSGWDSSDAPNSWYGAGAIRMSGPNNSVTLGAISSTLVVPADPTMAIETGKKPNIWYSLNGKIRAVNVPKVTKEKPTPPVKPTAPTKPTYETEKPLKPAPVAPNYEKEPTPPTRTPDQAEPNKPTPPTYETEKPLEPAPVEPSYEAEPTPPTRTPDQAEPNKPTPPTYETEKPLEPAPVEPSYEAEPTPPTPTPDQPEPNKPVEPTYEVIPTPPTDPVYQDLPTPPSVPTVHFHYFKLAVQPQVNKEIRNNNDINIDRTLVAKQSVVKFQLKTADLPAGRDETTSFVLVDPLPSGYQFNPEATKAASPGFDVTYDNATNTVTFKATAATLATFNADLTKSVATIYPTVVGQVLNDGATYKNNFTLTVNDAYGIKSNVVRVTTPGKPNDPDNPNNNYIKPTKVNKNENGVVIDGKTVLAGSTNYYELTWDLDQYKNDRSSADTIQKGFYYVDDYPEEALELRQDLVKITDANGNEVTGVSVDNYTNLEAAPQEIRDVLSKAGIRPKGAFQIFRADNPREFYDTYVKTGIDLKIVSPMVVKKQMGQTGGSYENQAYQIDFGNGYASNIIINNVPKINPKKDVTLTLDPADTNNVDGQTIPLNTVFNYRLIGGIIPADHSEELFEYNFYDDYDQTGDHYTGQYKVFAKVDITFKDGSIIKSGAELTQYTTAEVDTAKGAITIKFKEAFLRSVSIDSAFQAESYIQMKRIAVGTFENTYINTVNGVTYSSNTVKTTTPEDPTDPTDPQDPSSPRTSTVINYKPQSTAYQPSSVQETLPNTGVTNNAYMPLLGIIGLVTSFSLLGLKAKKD

[2] = molecular target: B3; assay: as above
A3VP1^AgI/II = molecular target: T2, A3VP1^AgI/II (Streptococcus mutans UA159, UniProt P23504 386-874); assay: as above
T2 construct: domain: A3VP1; also called A3VP1 of AgI/II
T2 sequence: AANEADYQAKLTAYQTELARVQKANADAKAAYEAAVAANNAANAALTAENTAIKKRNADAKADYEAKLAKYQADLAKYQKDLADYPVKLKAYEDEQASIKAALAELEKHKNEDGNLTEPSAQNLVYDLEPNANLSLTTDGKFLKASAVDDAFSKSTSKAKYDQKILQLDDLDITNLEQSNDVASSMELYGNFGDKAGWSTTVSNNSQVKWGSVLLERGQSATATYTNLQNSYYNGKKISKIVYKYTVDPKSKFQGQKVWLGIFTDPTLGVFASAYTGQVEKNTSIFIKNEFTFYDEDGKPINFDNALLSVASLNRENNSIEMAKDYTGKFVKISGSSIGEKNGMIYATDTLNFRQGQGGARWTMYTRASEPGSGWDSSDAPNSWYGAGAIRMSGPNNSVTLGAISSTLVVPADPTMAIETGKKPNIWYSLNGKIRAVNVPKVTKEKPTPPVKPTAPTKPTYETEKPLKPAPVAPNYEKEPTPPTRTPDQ

C123^AgI/II = molecular target: T3, C123^AgI/II (Streptococcus mutans UA159, UniProt P23504 1000-1486); assay: as above
T3 construct: domain: C123
T3 sequence: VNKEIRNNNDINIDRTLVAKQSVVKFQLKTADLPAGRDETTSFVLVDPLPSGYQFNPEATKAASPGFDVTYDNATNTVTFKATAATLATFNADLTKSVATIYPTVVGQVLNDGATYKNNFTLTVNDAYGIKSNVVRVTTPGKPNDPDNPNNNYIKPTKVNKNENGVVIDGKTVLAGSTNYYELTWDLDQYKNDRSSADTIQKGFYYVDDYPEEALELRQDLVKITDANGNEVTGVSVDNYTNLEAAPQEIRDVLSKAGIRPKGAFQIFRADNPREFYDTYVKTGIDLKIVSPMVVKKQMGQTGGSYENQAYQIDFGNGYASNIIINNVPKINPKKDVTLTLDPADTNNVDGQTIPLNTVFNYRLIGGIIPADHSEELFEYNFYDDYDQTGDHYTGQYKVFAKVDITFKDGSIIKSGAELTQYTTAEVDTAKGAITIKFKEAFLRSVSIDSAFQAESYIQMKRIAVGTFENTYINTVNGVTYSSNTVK

[3] = molecular target: salivary agglutinin (SAG) (human, UniProt Q9UGM3 20-2413); assay: SPR, analyte over SAG immobilized on CM5 chip, 1:1 Langmuir model
Chain of salivary agglutinin (SAG) (Q9UGM3 whole entry): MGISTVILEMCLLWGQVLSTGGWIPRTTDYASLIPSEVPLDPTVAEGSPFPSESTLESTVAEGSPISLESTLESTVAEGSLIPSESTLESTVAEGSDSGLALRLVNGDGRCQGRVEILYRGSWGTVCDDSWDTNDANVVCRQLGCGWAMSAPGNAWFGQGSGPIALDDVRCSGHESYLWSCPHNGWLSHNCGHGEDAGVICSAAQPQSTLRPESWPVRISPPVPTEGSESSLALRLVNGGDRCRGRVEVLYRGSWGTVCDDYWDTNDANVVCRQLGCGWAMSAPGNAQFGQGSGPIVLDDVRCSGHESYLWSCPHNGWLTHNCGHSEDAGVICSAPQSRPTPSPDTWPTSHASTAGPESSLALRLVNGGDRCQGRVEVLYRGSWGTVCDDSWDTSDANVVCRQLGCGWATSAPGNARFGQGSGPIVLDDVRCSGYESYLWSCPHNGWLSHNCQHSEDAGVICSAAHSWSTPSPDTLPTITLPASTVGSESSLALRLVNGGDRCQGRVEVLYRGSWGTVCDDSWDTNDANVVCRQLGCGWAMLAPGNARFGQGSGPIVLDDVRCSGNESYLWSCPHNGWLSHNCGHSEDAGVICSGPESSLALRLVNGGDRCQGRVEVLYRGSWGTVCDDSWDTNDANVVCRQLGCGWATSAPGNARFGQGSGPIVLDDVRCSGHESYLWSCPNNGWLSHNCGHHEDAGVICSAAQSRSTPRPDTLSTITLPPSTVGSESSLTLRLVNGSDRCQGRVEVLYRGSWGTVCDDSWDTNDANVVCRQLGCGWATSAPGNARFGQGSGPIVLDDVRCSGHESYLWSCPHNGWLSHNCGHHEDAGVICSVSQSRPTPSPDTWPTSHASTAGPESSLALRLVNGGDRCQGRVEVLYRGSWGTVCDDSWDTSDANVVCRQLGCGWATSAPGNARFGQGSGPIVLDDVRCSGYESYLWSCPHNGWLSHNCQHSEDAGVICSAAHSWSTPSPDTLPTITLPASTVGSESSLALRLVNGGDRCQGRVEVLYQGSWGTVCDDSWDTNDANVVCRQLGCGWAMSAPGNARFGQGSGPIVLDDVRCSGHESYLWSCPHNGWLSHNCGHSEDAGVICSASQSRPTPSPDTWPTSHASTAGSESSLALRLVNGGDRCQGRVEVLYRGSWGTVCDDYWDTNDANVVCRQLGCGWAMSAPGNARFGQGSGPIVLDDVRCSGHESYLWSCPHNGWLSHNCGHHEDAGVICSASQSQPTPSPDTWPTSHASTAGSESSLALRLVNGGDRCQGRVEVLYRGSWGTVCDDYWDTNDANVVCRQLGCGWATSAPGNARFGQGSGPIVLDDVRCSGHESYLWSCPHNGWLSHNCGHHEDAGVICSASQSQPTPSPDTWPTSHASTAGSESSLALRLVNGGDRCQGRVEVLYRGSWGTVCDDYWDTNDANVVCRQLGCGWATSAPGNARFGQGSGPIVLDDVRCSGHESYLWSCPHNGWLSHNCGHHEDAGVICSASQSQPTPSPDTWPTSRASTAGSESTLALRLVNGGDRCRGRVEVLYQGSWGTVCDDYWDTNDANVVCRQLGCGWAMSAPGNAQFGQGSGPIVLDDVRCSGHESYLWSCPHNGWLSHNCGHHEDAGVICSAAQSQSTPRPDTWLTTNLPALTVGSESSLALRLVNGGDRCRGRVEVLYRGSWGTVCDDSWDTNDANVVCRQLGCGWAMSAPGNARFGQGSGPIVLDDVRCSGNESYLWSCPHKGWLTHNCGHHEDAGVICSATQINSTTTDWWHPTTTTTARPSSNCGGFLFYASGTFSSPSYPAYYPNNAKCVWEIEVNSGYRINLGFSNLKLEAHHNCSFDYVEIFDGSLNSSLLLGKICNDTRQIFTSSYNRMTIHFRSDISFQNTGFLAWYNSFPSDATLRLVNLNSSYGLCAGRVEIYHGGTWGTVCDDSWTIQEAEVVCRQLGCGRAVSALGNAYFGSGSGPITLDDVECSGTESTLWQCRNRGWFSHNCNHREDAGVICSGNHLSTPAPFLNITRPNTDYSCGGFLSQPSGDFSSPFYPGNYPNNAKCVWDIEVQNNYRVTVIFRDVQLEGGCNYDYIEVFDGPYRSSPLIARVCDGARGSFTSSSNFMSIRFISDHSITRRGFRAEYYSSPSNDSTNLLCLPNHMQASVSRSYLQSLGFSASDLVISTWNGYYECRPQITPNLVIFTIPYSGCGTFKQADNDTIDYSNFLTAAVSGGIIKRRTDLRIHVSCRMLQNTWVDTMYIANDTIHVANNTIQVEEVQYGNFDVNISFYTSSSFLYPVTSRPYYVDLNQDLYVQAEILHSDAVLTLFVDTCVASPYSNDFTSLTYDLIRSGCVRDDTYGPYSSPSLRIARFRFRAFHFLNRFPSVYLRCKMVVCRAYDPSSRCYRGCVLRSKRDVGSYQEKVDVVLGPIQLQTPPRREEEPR

B1: iSRCR1 (Deglycosylated) (receptor)
chain: not shown
notes: domain: SRCR1; also called deglycosylated iSRCR1
Q: Which Ka [1] does the source give for B1 here?
A: Its Ka is 865000 M⁻¹.

Q: What about the Kd [1] of the same binder?
A: Its Kd is 1160 nM.

Q: What about the koff [1] of the same binder?
A: Its koff is 0.0575 s⁻¹.

Q: And the kon [1]?
A: Its kon is 49700 M⁻¹ s⁻¹.

Q: And the Ka [2]?
A: Its Ka is 7.97e+06 M⁻¹.

Q: And the Kd [2]?
A: The Kd was 125 nM.

Q: And the koff [2]?
A: Its koff is 0.00104 s⁻¹.

Q: And the kon [2]?
A: The kon was 8300 M⁻¹ s⁻¹.

Q: What about the Ka (A3VP1^AgI/II) of the same binder?
A: The Ka was 1.92e+06 M⁻¹.

Q: What about the Kd (A3VP1^AgI/II) of the same binder?
A: Its Kd is 520 nM.

Q: And the koff (A3VP1^AgI/II)?
A: The koff was 0.00274 s⁻¹.

Q: What about the kon (A3VP1^AgI/II) of the same binder?
A: Its kon is 5270 M⁻¹ s⁻¹.

Q: What about the Ka (C123^AgI/II) of the same binder?
A: The Ka was 48100 M⁻¹.

Q: And the Kd (C123^AgI/II)?
A: The Kd was 20800 nM.

Q: And the koff (C123^AgI/II)?
A: The koff was 0.0246 s⁻¹.

Q: And the kon (C123^AgI/II)?
A: Its kon is 1180 M⁻¹ s⁻¹.

B2: iSRCR123 (Deglycosylated) (receptor)
chain: not shown
notes: domain: SRCR123; also called deglycosylated iSRCR123
Q: B2 was tested. Which Ka [1] did it give?
A: The Ka was 6.82e+06 M⁻¹.

Q: And the Kd [1]?
A: The Kd was 147 nM.

Q: What about the koff [1] of the same binder?
A: The koff was 0.000464 s⁻¹.

Q: What about the kon [1] of the same binder?
A: Its kon is 3160 M⁻¹ s⁻¹.

Q: And the Ka [2]?
A: Its Ka is 5.24e+06 M⁻¹.

Q: And the Kd [2]?
A: Its Kd is 191 nM.

Q: And the koff [2]?
A: The koff was 0.00132 s⁻¹.

Q: What about the kon [2] of the same binder?
A: Its kon is 6920 M⁻¹ s⁻¹.

Q: And the Ka (A3VP1^AgI/II)?
A: The Ka was 1.22e+06 M⁻¹.

Q: What about the Kd (A3VP1^AgI/II) of the same binder?
A: Its Kd is 818 nM.

Q: What about the koff (A3VP1^AgI/II) of the same binder?
A: Its koff is 0.00333 s⁻¹.

Q: And the kon (A3VP1^AgI/II)?
A: The kon was 4070 M⁻¹ s⁻¹.

Q: And the Ka (C123^AgI/II)?
A: Its Ka is 458000 M⁻¹.

Q: And the Kd (C123^AgI/II)?
A: The Kd was 2180 nM.

Q: What about the koff (C123^AgI/II) of the same binder?
A: Its koff is 0.00658 s⁻¹.

Q: What about the kon (C123^AgI/II) of the same binder?
A: The kon was 3010 M⁻¹ s⁻¹.

Q: What does the source list for B3?
A: Ka [3]: 1.63e+08 M⁻¹; Kd [3]: 6.15 nM; koff [3]: 0.00197 s⁻¹; kon [3]: 320000 M⁻¹ s⁻¹
